Publication PMC5964162

Target: Human complement C1q (human) (UniProt P02745)
Assay: ELISA

Sequence of UniProt P02745 (P02745 23-245, chain 1 of 3): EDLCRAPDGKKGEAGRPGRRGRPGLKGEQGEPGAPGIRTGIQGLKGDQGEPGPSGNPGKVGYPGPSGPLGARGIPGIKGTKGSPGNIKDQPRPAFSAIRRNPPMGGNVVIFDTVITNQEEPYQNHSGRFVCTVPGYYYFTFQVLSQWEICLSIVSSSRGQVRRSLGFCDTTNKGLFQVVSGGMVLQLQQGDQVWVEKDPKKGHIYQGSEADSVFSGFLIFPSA
Sequence of UniProt P02745 (P02746 28-253, chain 2 of 3, further chain): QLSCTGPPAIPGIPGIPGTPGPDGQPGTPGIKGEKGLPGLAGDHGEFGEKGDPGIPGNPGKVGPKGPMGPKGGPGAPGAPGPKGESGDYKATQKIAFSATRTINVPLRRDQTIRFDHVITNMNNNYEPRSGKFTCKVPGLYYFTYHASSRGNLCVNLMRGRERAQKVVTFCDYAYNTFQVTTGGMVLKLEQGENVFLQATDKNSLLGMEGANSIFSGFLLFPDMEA
Sequence of UniProt P02745 (P02747 29-245, chain 3 of 3, further chain): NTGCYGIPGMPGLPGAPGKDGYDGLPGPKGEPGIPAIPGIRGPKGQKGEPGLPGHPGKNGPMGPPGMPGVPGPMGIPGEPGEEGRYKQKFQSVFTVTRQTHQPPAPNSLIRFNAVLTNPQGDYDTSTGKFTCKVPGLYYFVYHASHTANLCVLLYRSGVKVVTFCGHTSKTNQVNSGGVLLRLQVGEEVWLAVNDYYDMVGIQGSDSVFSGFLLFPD

Recombinant SntA protein of Streptococcus suis (from UniProt Q8VUN9 1-813) (natural protein)
percent of C1q–IgG binding left with 50 µM SntA: 3.34%
